Reference: publication PMC10502657 (Advanced Science, 2023)

Assays:
[1] = target: T1, Flag–p53 (UniProt P04637 1-393); assay: pull-down; GST-fusion proteins immobilised on glutathione beads incubated with purified Flag-tagged proteins in 50 mM Tris-HCl pH 7.4, 150 mM NaCl, 0.5% Triton X-100 for 4 h at 4 °C; western blot; conditions: both partners purified
T1 construct: p53; also called Flag-tagged p53; source: HEK293T, transfected, in lysate

[2] = target: T2, Flag–USP7 (UniProt Q93009 1-1102); assay: as above; conditions: both partners purified
T2 construct: ubiquitin-specific protease 7 (USP7); also called Flag-tagged USP7; source: HEK293T, transfected, in lysate
T2 sequence (Q93009 whole entry): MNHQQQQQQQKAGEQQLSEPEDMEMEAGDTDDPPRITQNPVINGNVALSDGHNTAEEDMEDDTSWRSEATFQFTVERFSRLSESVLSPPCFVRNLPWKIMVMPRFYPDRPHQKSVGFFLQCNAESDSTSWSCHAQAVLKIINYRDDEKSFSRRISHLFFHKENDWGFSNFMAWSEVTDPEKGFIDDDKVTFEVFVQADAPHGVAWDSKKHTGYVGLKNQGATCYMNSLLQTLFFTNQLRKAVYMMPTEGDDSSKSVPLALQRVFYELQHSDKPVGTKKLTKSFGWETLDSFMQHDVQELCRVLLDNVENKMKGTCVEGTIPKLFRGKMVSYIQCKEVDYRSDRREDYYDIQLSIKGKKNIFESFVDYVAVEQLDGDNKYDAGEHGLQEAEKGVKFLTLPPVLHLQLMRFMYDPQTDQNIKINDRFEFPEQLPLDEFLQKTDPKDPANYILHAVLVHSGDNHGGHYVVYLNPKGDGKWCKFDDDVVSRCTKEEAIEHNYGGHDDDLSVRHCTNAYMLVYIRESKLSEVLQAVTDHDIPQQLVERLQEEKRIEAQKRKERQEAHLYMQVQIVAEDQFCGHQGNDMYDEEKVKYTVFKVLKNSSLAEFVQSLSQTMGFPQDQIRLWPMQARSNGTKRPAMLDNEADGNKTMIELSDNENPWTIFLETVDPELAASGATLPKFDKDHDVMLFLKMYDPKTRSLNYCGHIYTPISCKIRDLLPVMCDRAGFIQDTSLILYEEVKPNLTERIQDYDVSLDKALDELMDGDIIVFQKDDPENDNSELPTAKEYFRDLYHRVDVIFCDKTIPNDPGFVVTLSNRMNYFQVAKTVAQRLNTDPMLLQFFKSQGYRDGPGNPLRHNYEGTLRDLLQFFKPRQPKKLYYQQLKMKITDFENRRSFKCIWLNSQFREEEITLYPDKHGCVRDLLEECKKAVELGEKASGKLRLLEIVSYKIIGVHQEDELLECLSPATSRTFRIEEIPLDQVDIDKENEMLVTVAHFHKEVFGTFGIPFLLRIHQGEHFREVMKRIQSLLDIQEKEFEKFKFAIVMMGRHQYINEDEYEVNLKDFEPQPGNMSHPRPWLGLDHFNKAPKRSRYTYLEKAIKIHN

T1 sequence (P04637 whole entry, the tested form may be a part): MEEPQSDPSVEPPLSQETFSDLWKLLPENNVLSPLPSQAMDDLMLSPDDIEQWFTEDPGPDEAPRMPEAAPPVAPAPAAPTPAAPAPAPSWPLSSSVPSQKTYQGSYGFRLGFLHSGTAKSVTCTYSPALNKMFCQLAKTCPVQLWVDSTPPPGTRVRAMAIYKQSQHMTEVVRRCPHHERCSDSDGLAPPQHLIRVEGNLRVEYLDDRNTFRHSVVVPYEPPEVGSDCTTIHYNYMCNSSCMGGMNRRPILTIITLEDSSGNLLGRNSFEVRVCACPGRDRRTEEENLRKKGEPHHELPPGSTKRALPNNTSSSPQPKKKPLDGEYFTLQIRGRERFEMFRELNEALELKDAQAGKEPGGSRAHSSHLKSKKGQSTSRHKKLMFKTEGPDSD

B1: GST–MLF2 (natural protein, UniProt Q15773 1-248, looked up)
chain: MFRFMRDVEPEDPMFLMDPFAIHRQHMSRMLSGGFGYSPFLSITDGNMPGTRPASRRMQQAGAVSPFGMLGMSGGFMDMFGMMNDMIGNMEHMTAGGNCQTFSSSTVISYSNTGDGAPKVYQETSEMRSAPGGIRETRRTVRDSDSGLEQMSIGHHIRDRAHILQRSRNHRTGDQEERQDYINLDESEAAAFDDEWRRETSRFRQQRPLEFRRLESSGAGGRRAEGPPRLAIQGPEDSPSRQSRRYDW
notes: myeloid leukemia factor 2 (MLF2); also called glutathione-S-transferase (GST) tagged MLF2
[1]
  binding result: binds
[2]
  binding result: binds
